# Legend:
# [1] = target: thermostabilized turkey beta-1 adrenergic receptor (turkey) (UniProt P07700); experiment: cross-linking; Kd by titrating the partner protein against isoprenaline-bound β1AR; 20 mM Hepes pH 7.5, 40 mM NaCl, 0.01% lauryl maltose neopentyl glycol; BS(PEG)9, high-mass MALDI-MS, normalised to β-galactosidase
# [2] = target: thermostabilized turkey beta-1 adrenergic receptor (turkey) (UniProt P07700); experiment: cross-linking; Kd by titrating the G protein against the apo GPCR; 20 mM Hepes pH 7.5, 40 mM NaCl, 0.01% lauryl maltose neopentyl glycol; BS(PEG)9, high-mass MALDI-MS, normalised to β-galactosidase
# [3] = target: angiotensin II-bound F117W mutant of mouse angiotensin II type 1 receptor (mouse | not stated) (UniProt P29754); experiment: cross-linking; Kd by titrating the G protein against ligand-bound AT1R; 20 mM Hepes pH 7.5, 40 mM NaCl, 0.01% lauryl maltose neopentyl glycol; BS(PEG)9, high-mass MALDI-MS, normalised to β-galactosidase
# [4] = target: thermostabilized turkey beta-1 adrenergic receptor (turkey) (UniProt P07700); experiment: cross-linking; β1AR and partner with 1 or 25 µM s32212 at increasing concentrations of isoprenaline; BS(PEG)9, high-mass MALDI-MS
# [5] = target: thermostabilized turkey beta-1 adrenergic receptor (turkey) (UniProt P07700); experiment: cross-linking; carvedilol-bound β1AR with Gαi or β-arrestin-1 at equimolar concentration; BS(PEG)9, high-mass MALDI-MS; percent complex by normalisation with β-Gal
# [6] = target: thermostabilized turkey beta-1 adrenergic receptor (turkey) (UniProt P07700); experiment: cross-linking; apo β1AR with Gαi or β-arrestin-1 at equimolar concentration; BS(PEG)9, high-mass MALDI-MS; percent complex by normalisation with β-Gal
# [7] = target: thermostabilized turkey beta-1 adrenergic receptor (turkey) (UniProt P07700); experiment: cross-linking; isoprenaline-bound β1AR with Gαi or β-arrestin-1 at equimolar concentration; BS(PEG)9, high-mass MALDI-MS; percent complex by normalisation with β-Gal
# [8] = target: mouse angiotensin II type 1 receptor F117W Δ324 with a C-terminal 1D4 tag (mouse); experiment: cross-linking + other: high-mass MALDI-MS; ligand-free (apo) GPCR, 5 µM, mixed with partner protein at various concentrations, 1 h at room temperature, BS(PEG)9 cross-linking, β-Gal as internal standard; 20 mM Hepes pH 7.5, 40 mM NaCl, 0.01% LMNG; Ka = 1/Kd
# [9] = target: angiotensin II-bound mouse angiotensin II type 1 receptor F117W Δ324 (mouse | human); experiment: cross-linking + other: high-mass MALDI-MS; angiotensin II-bound AT1R (angII-AT1R), 5 µM, mixed with partner protein at various concentrations, 1 h at room temperature, BS(PEG)9 cross-linking, 1.0 µM β-Gal as internal standard; 20 mM Hepes pH 7.5, 40 mM NaCl, 0.01% LMNG; Ka = 1/Kd
# thermostabilized turkey beta-1 adrenergic receptor (turkey), sequence (P07700 whole entry): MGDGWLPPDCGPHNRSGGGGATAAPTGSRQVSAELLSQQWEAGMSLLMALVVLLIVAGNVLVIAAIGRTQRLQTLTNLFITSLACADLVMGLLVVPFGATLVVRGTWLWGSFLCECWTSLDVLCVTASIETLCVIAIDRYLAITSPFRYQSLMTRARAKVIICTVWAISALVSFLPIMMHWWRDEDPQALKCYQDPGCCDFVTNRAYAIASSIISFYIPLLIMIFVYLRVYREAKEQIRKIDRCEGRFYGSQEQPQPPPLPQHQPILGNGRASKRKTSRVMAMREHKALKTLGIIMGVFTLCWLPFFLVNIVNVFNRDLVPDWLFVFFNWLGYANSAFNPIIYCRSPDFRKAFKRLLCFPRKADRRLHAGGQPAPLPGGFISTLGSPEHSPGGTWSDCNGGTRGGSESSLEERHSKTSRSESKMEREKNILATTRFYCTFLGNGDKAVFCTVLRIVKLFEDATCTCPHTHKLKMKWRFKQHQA
# full-length wild-type β-arrestin-1, sequence (P49407 whole entry): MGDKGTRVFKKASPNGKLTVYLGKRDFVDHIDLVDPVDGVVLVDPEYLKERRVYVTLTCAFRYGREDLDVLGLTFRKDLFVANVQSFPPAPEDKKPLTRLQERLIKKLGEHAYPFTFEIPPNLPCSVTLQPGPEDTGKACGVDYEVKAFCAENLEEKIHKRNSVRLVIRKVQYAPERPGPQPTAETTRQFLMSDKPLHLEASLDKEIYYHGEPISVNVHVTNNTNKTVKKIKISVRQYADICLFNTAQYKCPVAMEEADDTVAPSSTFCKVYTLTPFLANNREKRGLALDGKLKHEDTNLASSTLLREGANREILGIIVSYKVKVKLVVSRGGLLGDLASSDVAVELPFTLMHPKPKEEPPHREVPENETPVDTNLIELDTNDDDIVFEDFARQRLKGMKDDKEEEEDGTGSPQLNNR
substance,measurement,setting,value
mGo truncated by its last five residues (domain or fragment),Kd,[1],230 nM
same,Kd,[2],280 nM
mini-Gα protein mGo (domain or fragment),binding strength relative to mGq,[3],2 fold
same,Kd,[1],250 nM
same,Kd,[2],250 nM
mini-Gα protein mGq (domain or fragment),Kd,[1],1240 nM
mini-Gα protein mGs (from UniProt P63092 87-394) (domain or fragment),complex formation recovered by raising isoprenaline (with s32212),[4],80%
same,Kd,[1],350 nM
full-length wild-type Gαi (from UniProt P63096 1-354) (natural protein),complex formation,[5],92%
same,complex formation,[6],60%
same,complex formation,[7],60%
mini-Gα protein mGi (domain or fragment),Kd,[1],1620 nM
mini-Go (domain or fragment),Ka,[8],270000 M⁻¹
same,Ka,[9],1.02e+06 M⁻¹
full-length wild-type β-arrestin-1 (from UniProt P49407 1-418) (natural protein),complex formation,[5],88%
same,complex formation,[6],32%
same,complex formation,[7],32%

# From paper PMC8346855
